Target: Nullbasic-FLAG-V5-6xHis (HIV-1)
Test: BLI

B1: Myc-DDK-tagged DDX1 (natural protein)
chain: MAAFSEMGVMPEIAQAVEEMDWLLPTDIQAESIPLILGGGDVLMAAETGSGKTGAFSIPVIQIVYETLKDQQEGKKGKTTIKTGASVLNKWQMNPYDRGSAFAIGSDGLCCQSREVKEWHGCRATKGLMKGKHYYEVSCHDQGLCRVGWSTMQASLDLGTDKFGFGFGGTGKKSHNKQFDNYGEEFTMHDTIGCYLDIDKGHVKFSKNGKDLGLAFEIPPHMKNQALFPACVLKNAELKFNFGEEEFKFPPKDGFVALSKAPDGYIVKSQHSGNAQVTQTKFLPNAPKALIVEPSRELAEQTLNNIKQFKKYIDNPKLRELLIIGGVAARDQLSVLENGVDIVVGTPGRLDDLVSTGKLNLSQVRFLVLDEADGLLSQGYSDFINRMHNQIPQVTSDGKRLQVIVCSATLHSFDVKKLSEKIMHFPTWVDLKGEDSVPDTVHHVVVPVNPKTDRLWERLGKSHIRTDDVHAKDNTRPGANSPEMWSEAIKILKGEYAVRAIKEHKMDQAIIFCRTKIDCDNLEQYFIQQGGGPDKKGHQFSCVCLHGDRKPHERKQNLERFKKGDVRFLICTDVAARGIDIHGVPYVINVTLPDEKQNYVHRIGRVGRAERMGLAISLVATEKEKVWYHVCSSRGKGCYNTRLKEDGGCTIWYNEMQLLSEIEEHLNCTISQVEPDIKVPVDEFDGKVTYGQKRAAGGGSYKGHVDILAPTVQELAALEKEAQTSFLHLGYLPNQLFRTF
Kd: 6 nM

Source: PMC4271445
